*1 amine or outer side, *2 acyl side, *3 side chain or, on linkers, in order; H or OH if unused. Where no end group is shown, it is not given here. Side-chain parts run from the residue outwards. [ ]: non-standard residue; d: D form. The star is where a group is joined. C18 diacid = O=C(O)CCCCCCCCCCCCCCCCC(=O)*; γGlu = O=C(O)[C@H](CCC(=O)[*:2])N[*:1]; Desaminohistidyl = O=C(CCc1c[nH]cn1)*; AEEA = NCCOCCOCC(=O)O; Aib = CC(C)(N)C(=O)O
Columns and labels:
human GLP-1 receptor [1] = biological target: T1, human GLP-1 receptor (human, UniProt P43220 24-463); test: SPA displacement of [125I]GLP-1(7-36)NH2 from hGLP-1R BHK membranes
T1 construct: whole, on cells; reporter assay on whole cells
Protocol: The GLP-1 receptor binding of each derivatives were determined with competitive binding, displacing [¹²⁵I]GLP-1 bound to GLP-1 receptors expressed in cell membranes associated with wheat germ agglutinin (WGA) scintillation proximity assay (SPA) beads. Each derivative was added in a series of concentrations to isolated membranes comprising the human GLP-1 receptor and displacement of the labelled radioligand was monitored. The receptor binding was reported as the concentration at which half of the labelled ligand is displaced from the receptor, the IC⁵⁰ value.
1. For the receptor binding assay 50 μl of the assay buffer was added to each well of an assay plate. [0588] 2. Test compounds were serially diluted to give the following concentrations: 8×10EE-7 M, 8×10EE-8 M, 8×10EE-9 M, 8×10EE-10 M, 8×10EE-11 M, 8×10EE-12 M and 8×10EE-13 M. Twenty-five μl were added to appropriate wells in the assay plate. [0589] 3. Cell membrane aliquots were thawed and diluted to their working concentration. Fifty μl were added to each well in the assay plate. [0590] 4. WGA SPA beads were suspended in assay buffer at 20 mg/ml. The suspension was diluted to 10 mg/ml in assay buffer just prior to addition to the assay plate. Fifty μl were added to each well in the assay plate. [0591] 5. […] A 25 μl aliquot was reserved for measuring total counts/well. [0592] 6. The assay plate was incubated for 2 h at 30° C. [0593] 7. The assay plate was centrifuged for 10 min. [0594] 8. The assay plate was read in a Perkin Elmer TopCount NXT instrument.

human glucagon receptor [2] = biological target: T2, human glucagon receptor (human, UniProt P47871 26-477); test: SPA displacement of [125I]-glucagon from human glucagon receptor BHK membranes
T2 construct: whole, on cells; reporter assay on whole cells
Protocol: 1. For the receptor binding assay 50 μl of the assay buffer was added to each well of an assay plate. [0603] 2. Test compounds were serially diluted to give the following concentrations: 8×10EE-7 M, 8×10EE-8 M, 8×10EE-9 M, 8×10EE-10 M, 8×10EE-11 M, 8×10EE-12 M and 8×10EE-13 M. Twenty-five μl were added to appropriate wells in the assay plate. [0604] 3. Cell membrane aliquots were thawed and diluted to their working concentration. Fifty μl were added to each well in the assay plate. [0605] 4. WGA SPA beads were suspended in assay buffer at 20 mg/ml. The suspension was diluted to 10 mg/ml in assay buffer just prior to addition to the assay plate. Fifty μl were added to each well in the assay plate. [0606] 5. […] A 25 μl aliquot was reserved for measuring total counts/well. […] 6. The assay plate was incubated for 2 h at 25° C. [0608] 7. The assay plate was centrifuged for 10 min at 1500 rpm. [0609] 8. The assay plate was read in a Perkin Elmer TopCount NXT instrument.

human GLP-1 receptor [3] = biological target: T1, human GLP-1 receptor; test: cell-based or functional assay
human glucagon receptor [4] = biological target: T2, human glucagon receptor; test: cell-based or functional assay

T2 sequence (P47871 26-477): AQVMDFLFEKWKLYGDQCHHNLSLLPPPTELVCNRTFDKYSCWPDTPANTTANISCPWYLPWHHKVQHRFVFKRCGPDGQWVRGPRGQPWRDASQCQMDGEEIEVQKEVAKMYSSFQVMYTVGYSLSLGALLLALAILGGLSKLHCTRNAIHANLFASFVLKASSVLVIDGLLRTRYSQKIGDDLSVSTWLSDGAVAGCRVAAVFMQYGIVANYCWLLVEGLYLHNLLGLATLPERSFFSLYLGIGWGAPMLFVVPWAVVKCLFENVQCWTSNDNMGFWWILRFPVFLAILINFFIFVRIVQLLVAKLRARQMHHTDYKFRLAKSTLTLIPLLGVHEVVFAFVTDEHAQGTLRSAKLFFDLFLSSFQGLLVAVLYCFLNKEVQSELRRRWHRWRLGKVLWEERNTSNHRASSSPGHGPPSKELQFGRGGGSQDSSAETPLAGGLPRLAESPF

| Binder | IC50 (human GLP-1 receptor [1]) [nM] | IC50 (human glucagon receptor [2]) [nM] | EC50 GLP-1R [pM], CRE luciferase reporter gene assay (human GLP-1 receptor [3]) [pM] | EC50 GlucagonR [pM], CRE luciferase reporter gene assay (human glucagon receptor [4]) [pM] |
| --- | --- | --- | --- | --- |
| [Desaminohistidyl]AHGTFTSDVSKYLEGRAAREFIAWLLK([Ado-Ado-γGlu-γGlu-γGlu-C18 diacid])GGG | 0.9 | 69.5 | – | – |
| [Desaminohistidyl][Aib]HGTFTSDVSKYLEEQAAREFIAWLLK([Gly-Ser-Glu-Gly-Ser-γGlu-γGlu-C18 diacid])T (Named as peptide, not peptide amide (C-terminal acid)) | 6.9 | 18.8 | – | – |
| [Desaminohistidyl][Aib]HGTFTSDVSKYLEK([γGlu-γGlu-AEEA-AEEA-γGlu-C18 diacid])QAAREFIAWLLKGGG | 0.5 | 56 | – | – |
| [Desaminohistidyl][Aib]HGTFTSDYSKYLEEQAAREFIAWLLKGK([Gly-Ser-Glu-Gly-Ser-γGlu-γGlu-C18 diacid])G | 3.2 | 31.1 | – | – |
| [Desaminohistidyl][Aib]HGTFTSDVSKYLEEQAAREFIAWLLK([Gly-Ser-Glu-Gly-Ser-γGlu-γGlu-C18 diacid])T-NH2 | 0.4 | 3.2 | 5 | 40.7 |
| [Desaminohistidyl][Aib]HGTFTSDLSKYLEEQAAREFIAWLLK([Ado-Ado-γGlu-γGlu-C18 diacid])T-NH2 | 1.1 | 5.1 | 14.7 | 54.2 |
| [Desaminohistidyl][Aib]HGTFTSDYSKYLEGK([AEEA-AEEA-γGlu-C18 diacid])AAREFIAWLLKT-NH2 (SMILES CC[C@H](C)[C@H](NC(=O)[C@H](Cc1ccccc1)NC(=O)[C@H](CCC(=O)O)NC(=O)[C@H](CCCNC(=N)N)NC(=O)[C@H](C)NC(=O)[C@H](C)NC(=O)[C@H](CCCCNC(=O)COCCOCCNC(=O)COCCOCCNC(=O)CC[C@H](NC(=O)CCCCCCCCCCCCCCCCC(=O)O)C(=O)O)NC(=O)CNC(=O)[C@H](CCC(=O)O)NC(=O)[C@H](CC(C)C)NC(=O)[C@H](Cc1ccc(O)cc1)NC(=O)[C@H](CCCCN)NC(=O)[C@H](CO)NC(=O)[C@H](Cc1ccc(O)cc1)NC(=O)[C@H](CC(=O)O)NC(=O)[C@H](CO)NC(=O)[C@@H](NC(=O)[C@H](Cc1ccccc1)NC(=O)[C@@H](NC(=O)CNC(=O)[C@H](Cc1c[nH]cn1)NC(=O)C(C)(C)NC(=O)CCc1c[nH]cn1)[C@@H](C)O)[C@@H](C)O)C(=O)N[C@@H](C)C(=O)N[C@@H](Cc1c[nH]c2ccccc12)C(=O)N[C@@H](CC(C)C)C(=O)N[C@@H](CC(C)C)C(=O)N[C@@H](CCCCN)C(=O)N[C@H](C(N)=O)[C@@H](C)O) | 13.1 | 51 | – | – |
| [Desaminohistidyl][Aib]HGTFTSDVSKYLEEQAAREFIAWLIK([Ado-Ado-γGlu-γGlu-C18 diacid])T-NH2 | 0.2 | 11.8 | 18.3 | 106 |
| [Desaminohistidyl][Aib]HGTFTSDVSKYLEEQAAREFIAWLLK([Ado-Ado-γGlu-γGlu-γGlu-C18 diacid])T (Named as peptide, not peptide amide (C-terminal acid)) | 4.6 | 28.1 | – | – |
| [Desaminohistidyl]AHGTFTSDVSRYLEGRAAREFIAWLLK([Ado-Ado-γGlu-γGlu-γGlu-C18 diacid]) | 19 | 43.4 | – | – |

Reference: patent US20160102129A1 (Novo Nordisk, published 2016)
